Results as given in patent US20220220199A1.

Biological target: LAG-3 expressed at the surface of Jurkat LAG-3+/NFAT-luc2 effector cells (Promega) (UniProt P18627)
Assay: cell-based or functional assay

LAG-3 expressed at the surface of Jurkat LAG-3+/NFAT-luc2 effector cells (Promega), sequence (P18627 23-525 limits assumed): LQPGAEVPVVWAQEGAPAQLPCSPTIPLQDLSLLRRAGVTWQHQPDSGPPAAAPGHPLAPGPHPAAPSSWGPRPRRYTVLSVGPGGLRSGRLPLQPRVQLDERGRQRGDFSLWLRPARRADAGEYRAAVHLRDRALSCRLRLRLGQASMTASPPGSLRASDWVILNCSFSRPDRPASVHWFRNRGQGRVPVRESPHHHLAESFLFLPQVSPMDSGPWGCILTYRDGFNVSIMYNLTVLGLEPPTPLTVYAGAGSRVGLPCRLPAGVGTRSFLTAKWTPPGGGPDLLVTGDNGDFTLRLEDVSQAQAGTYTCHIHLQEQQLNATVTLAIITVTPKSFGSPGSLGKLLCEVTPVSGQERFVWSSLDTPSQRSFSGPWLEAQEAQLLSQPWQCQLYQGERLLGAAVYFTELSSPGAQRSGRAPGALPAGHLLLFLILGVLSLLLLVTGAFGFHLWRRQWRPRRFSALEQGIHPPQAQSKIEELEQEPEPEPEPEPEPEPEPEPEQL

inhibition of luciferase expression (RLU) under an NFAT response element in Jurkat LAG-3+/NFAT-luc2 effector cells stimulated with anti-CD3 (OKT3, 3 ng/ml): 37 ng/mL
Substance: IMP761 (humanized 13E2-human IgG4 Fc antibody)
